# Publication PMC5416870, “Lee Hyunah 1 2”
# B1: K2-31 (structured_RNA)
# RNA: GAUCUGAGCCAUUGAAGCAAGCUUCCAGAUC
# B2: GFP51 (structured_RNA)
# RNA: UACGGCAAGCUGACCCUGAAGUUCAUCUGCACCACCGGCAAGCUGCCCGUG
# B3: dsUN51 (dsRNA)
# RNA 1: GGCCAUCCUGUUUUUUUCCCUUUUUUUUUUUCUUUUUUUUUUUUUUUUUUU
# RNA 2: AAAAAAAAAAAAAAAAAAAAAAGAAAAAAAAAAAGGGAAAAAAACUGGAUGGCC
# B4: HBB58 (structured_RNA)
# RNA: AGGUGAAGGCUCAUGGCAAGAAAGUGCUCGGUGCCUUUAGUGAUGGCCUGGCUCACCU
# Target: SOX (alkaline exonuclease) (Kaposi's sarcoma-associated herpesvirus …, UniProt P88925 1-486)
# Test: fluorescence polarization anisotropy; FPA with 3'FAM oligonucleotides, single site binding fit (GraphPad PRISM6); buffer, pH and temperature as in cited Bagneris et al., not in material
# Settings: protein: recombinant
binder,measurement,setting,value
B1,Kd,"label: 3'FAM, hairpin",49 µM
B2,Kd,"label: 3'FAM, stem loop with UGAAG motif",5 µM
B3,Kd,"label: 3'FAM (strand 1), duplex, as printed has one U-U mismatch and second strand about 3 nt longer (5' overhang)",~73 µM
B4,Kd,"label: 3'FAM, bulge",42 µM
